Laboratory results taken from paper PMC12728182 (2025).

Key:
[1] = biological target: T1, Human Rac1 (residues 1-177), GMPPNP-loaded (human, UniProt P63000 1-177); assay: ITC; 35 °C, GMPPNP-loaded Rac1 (average)
[2] = biological target: T1, Human Rac1 (residues 1-177), …; assay: ITC; 10 °C, GMPPNP-loaded Rac1 (average)
[3] = biological target: T1, Human Rac1 (residues 1-177), …; assay: ITC; 15 °C
[4] = biological target: T1, Human Rac1 (residues 1-177), …; assay: ITC; 15 °C, GMPPNP-loaded Rac1 (average)

- Kd [1]: 21.7 µM
- Kd [2]: 26.8 µM
- Kd [3]: 21.6 µM
- Kd [4]: 20.2 µM
B1: POSH_(315-380), shorter construct of human POSH comprising MRE1 and MRE2 (domain or fragment)
chain: GHMWSQASQNRHSMEISPPVLISSSNPTAAARISELSGLSCSAPSQVHISTTGLIVTPPPSSPVTTGPSF
